# Data published in the supplement of paper PMC10065799, “High-throughput profiling of sequence recognition by tyrosine kinases and SH2 domains using bacterial peptide display” (eLife, 2023).
# Legend:
# [1] = system: AncSZ; assay: phosphorylation enrichment, bacterial display (enrichment ratio); higher = better substrate or ligand; peptides without Tyr show the background
# [2] = target: EPHB1 (UniProt P54762); assay: as above
# [3] = target: EPHB2 (UniProt P29323); assay: as above
# [4] = target: FGFR1 (UniProt P11362); assay: as above
# [5] = target: FGFR3 (UniProt P22607); assay: as above
# Chain of FGFR3 (P22607 whole entry, looked up): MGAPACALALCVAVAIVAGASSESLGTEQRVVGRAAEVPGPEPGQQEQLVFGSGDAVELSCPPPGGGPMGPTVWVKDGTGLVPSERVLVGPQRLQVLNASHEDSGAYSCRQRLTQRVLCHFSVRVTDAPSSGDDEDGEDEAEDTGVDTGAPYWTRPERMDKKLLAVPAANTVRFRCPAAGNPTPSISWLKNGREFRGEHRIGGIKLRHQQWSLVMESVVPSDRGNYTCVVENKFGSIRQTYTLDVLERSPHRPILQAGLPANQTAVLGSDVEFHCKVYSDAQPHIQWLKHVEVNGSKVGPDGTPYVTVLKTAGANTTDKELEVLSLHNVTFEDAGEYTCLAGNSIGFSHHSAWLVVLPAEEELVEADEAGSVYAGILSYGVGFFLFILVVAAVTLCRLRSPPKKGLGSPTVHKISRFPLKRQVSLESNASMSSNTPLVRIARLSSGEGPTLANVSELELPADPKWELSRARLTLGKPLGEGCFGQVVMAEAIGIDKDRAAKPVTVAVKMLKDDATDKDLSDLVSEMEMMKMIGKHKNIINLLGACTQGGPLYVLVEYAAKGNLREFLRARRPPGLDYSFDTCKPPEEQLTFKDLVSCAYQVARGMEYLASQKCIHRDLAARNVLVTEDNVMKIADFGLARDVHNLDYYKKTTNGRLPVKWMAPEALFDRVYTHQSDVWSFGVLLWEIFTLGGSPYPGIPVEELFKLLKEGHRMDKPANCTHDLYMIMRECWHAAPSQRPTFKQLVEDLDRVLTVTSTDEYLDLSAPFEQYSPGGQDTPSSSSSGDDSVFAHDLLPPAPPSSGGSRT
# [6] = system: Fer (mouse); assay: as above
# [7] = target: Fes (UniProt P07332); assay: as above
# Chain of Fes (P07332 whole entry, looked up): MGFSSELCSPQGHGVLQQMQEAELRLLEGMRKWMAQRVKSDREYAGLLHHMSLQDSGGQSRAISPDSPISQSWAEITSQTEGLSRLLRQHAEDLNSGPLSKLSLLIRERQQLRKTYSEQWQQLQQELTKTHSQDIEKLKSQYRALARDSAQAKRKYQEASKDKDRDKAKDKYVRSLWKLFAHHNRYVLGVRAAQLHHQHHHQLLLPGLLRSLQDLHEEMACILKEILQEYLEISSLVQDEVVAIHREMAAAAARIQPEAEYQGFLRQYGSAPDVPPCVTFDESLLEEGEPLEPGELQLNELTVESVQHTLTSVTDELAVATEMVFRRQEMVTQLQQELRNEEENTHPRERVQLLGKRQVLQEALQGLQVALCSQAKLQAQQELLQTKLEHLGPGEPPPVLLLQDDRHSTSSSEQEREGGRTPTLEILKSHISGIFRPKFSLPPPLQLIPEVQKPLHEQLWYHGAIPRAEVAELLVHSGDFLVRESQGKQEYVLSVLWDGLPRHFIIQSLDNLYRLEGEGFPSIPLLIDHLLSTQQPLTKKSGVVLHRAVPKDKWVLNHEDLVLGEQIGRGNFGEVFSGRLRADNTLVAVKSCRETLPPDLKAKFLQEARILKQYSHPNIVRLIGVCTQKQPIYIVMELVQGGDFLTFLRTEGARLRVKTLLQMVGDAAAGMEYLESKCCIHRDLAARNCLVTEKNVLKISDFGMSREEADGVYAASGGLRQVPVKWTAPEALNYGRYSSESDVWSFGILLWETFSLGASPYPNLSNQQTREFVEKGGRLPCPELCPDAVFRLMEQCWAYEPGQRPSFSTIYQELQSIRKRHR
# [8] = target: Fyn (UniProt P06241); assay: as above
# Chain of Fyn (P06241 whole entry, looked up): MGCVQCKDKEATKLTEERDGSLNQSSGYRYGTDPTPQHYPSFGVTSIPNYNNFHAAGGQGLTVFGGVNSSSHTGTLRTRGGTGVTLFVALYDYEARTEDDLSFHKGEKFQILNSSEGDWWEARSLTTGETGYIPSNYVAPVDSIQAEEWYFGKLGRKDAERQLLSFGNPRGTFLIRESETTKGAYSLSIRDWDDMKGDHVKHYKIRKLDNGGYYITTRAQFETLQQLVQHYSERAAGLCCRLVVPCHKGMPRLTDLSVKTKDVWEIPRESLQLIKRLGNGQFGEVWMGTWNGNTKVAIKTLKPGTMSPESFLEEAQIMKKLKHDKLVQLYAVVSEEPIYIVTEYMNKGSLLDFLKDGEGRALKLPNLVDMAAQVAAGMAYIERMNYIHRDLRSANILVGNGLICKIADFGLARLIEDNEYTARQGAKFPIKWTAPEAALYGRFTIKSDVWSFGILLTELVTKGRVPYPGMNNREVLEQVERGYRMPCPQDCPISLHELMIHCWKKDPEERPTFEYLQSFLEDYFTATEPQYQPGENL
# [9] = target: Hck (UniProt P08631); assay: as above
# Chain of Hck (P08631 whole entry, looked up): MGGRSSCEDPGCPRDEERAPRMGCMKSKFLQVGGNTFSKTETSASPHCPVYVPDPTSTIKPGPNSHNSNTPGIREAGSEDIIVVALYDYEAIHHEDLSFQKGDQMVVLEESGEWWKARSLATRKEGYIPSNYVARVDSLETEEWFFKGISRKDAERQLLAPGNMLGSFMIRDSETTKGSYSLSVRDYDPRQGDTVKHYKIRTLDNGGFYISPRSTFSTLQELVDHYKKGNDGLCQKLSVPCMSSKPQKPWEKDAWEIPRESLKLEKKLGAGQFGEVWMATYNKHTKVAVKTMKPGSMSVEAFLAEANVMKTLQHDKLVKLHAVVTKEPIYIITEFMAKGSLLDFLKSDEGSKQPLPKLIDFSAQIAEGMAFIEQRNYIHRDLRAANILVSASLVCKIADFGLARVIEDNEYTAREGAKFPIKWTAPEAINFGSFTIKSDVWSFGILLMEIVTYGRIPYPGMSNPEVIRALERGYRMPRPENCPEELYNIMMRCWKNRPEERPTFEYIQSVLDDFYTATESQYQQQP
# [10] = target: Jak2 (UniProt O60674); assay: as above
# [11] = target: MERTK (UniProt Q12866); assay: as above
# Chain of MERTK (Q12866 whole entry, looked up): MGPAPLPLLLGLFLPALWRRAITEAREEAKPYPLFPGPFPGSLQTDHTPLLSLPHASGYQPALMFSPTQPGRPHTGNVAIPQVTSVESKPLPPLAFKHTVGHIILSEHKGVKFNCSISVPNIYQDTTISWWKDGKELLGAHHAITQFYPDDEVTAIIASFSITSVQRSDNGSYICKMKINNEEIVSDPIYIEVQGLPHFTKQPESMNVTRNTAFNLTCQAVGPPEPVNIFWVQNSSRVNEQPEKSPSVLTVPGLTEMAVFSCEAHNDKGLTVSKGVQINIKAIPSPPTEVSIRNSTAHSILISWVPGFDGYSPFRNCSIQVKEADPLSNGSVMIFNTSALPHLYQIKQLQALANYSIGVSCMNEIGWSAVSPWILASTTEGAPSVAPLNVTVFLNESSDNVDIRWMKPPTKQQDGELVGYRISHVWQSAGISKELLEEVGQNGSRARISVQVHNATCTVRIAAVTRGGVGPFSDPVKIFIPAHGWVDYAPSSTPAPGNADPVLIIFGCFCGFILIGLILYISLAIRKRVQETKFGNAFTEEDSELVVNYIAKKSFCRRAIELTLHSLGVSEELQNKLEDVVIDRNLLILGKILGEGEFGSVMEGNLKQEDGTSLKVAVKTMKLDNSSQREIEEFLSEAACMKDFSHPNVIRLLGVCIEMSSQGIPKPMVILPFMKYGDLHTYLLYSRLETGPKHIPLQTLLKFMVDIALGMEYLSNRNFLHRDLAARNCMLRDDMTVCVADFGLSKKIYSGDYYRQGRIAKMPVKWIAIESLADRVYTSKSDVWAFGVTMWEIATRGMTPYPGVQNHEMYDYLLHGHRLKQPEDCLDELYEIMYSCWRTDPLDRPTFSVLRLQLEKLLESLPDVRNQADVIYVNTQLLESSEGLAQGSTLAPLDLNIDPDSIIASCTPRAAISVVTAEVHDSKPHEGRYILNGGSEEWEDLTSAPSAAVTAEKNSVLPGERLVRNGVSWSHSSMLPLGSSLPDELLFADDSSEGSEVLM
# [12] = system: c-Abl (mouse); assay: as above
# [13] = system: c-Src; assay: as above
# [14] = target: Grb2 SH2 (UniProt P62993); assay: SH2 binding enrichment of the phosphorylated peptide, bacterial display (enrichment ratio); higher = better substrate or ligand; peptides without Tyr show the background
# Chain of Grb2 SH2 (P62993 whole entry, looked up): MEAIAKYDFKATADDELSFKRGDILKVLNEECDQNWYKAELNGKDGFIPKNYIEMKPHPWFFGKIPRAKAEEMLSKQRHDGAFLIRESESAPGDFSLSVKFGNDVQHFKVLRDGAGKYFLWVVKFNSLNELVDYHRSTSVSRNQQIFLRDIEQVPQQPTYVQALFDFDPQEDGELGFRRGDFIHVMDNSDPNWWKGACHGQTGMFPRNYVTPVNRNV
# [15] = target: SHP2-C SH2; assay: as above
# [16] = target: c-Src SH2; assay: as above
# 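Throughout, for SH2 binding enrichment of the phosphorylated peptide, bacterial display: peptide library displayed on the E. coli surface as eCPX fusions, selected cells deep-sequenced, score is each peptide's frequency after selection divided by its frequency in the input.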
# 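Throughout, for phosphorylation enrichment, bacterial display: 11-residue human phosphosite peptides and single-mutation variants displayed on the E. coli surface, counted by deep sequencing, each peptide's frequency after selection divided by its frequency in the unselected input library; frequency after pTyr selection over input frequency; kinase dosed for 20-30% of maximal phosphorylation in three min.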
# Chain of EPHB2 (P29323 whole entry, looked up): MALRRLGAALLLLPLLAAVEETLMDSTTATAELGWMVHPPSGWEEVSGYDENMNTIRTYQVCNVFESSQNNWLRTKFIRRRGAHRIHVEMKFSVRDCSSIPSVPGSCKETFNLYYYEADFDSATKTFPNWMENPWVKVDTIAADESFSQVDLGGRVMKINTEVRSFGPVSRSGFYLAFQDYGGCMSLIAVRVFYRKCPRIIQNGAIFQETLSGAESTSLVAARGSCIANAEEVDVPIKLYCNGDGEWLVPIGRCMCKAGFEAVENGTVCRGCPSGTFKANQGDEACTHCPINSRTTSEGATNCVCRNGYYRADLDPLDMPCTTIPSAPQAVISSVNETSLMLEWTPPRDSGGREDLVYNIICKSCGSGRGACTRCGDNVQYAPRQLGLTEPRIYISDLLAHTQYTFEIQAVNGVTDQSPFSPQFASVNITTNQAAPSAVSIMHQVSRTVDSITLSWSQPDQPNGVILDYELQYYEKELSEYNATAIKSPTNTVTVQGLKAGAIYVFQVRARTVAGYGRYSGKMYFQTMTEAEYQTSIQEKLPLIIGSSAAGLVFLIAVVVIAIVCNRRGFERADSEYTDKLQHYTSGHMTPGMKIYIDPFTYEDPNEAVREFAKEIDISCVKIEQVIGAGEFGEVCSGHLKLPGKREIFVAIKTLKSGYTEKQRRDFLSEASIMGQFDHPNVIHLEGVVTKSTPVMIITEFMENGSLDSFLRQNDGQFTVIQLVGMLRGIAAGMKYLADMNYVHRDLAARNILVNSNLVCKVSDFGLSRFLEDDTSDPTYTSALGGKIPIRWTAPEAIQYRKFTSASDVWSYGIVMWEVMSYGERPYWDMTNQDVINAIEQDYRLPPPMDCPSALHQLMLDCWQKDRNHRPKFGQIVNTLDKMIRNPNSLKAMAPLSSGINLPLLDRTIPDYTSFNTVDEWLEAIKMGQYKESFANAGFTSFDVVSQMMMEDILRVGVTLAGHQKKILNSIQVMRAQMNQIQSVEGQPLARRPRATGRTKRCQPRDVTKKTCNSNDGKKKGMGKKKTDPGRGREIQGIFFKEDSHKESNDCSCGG
Sequence,phosphorylation enrichment [1],phosphorylation enrichment [2],phosphorylation enrichment [3],phosphorylation enrichment [4],phosphorylation enrichment [5],phosphorylation enrichment [6],phosphorylation enrichment [7],phosphorylation enrichment [8],phosphorylation enrichment [9],phosphorylation enrichment [10],phosphorylation enrichment [11],phosphorylation enrichment [12],phosphorylation enrichment [13],SH2 binding enrichment [14],SH2 binding enrichment [15],SH2 binding enrichment [16]
PEAALYGRFTI [FYN_Y440],0.875,0.59,0.514,0.646,0.645,1.67,1.11,7.72,6.52,1.38,1.9,2.83,6.87,0.694,0.757,0.418
PEACDYGLGGG [GSTO1_Y239],1.78,1.38,0.887,1.19,0.816,0.656,1.34,0.691,0.739,1.11,0.635,1.28,1.19,0.912,0.559,0.693
PEADKYCLTFA [FGG_Y300_R301C_YF],1.33,0.685,0.7,0.664,1.21,0.72,1.96,0.76,1.5,1.71,0.758,1.32,0.683,0.757,0.606,0.498
PEFVVYKPQME [CCRL2_Y170],1.7,1.12,0.843,0.673,1.08,0.898,1.82,0.814,0.883,1.82,0.972,1.42,0.783,1.02,0.686,0.635
PEVSGYCHFAD [TG_Y234_C237Y_YF],1.29,0.745,0.782,0.709,0.773,0.517,1.39,0.532,0.639,1.15,0.384,0.937,0.572,0.883,0.631,1.32
PFADPYFDFEI [ZC3H18_Y371_YF],1.48,0.673,0.369,9.45,6.94,0.902,1.16,0.885,0.597,1.7,0.638,0.811,4.46,0.857,1.03,0.666
PFIDSYEKDVA [PGM1_Y521_L516P_YF],1.07,0.574,0.708,0.592,0.636,0.35,1.04,0.656,0.606,0.594,0.378,0.51,0.375,0.682,0.612,0.595
PGGKIYISPLK [RB1_Y805_N803K],0.598,0.361,0.763,0.45,0.583,0.441,0.794,0.513,0.456,0.72,0.461,1.17,0.422,0.933,1.12,0.776
PGVNYYFQVSA,2.15,1.61,1.49,2.98,3.16,0.907,2.14,0.611,1.03,2.79,0.734,1.48,0.692,1.04,0.629,0.561
PIQLFYTRRNT [GHR_Y86],1.18,0.766,0.775,0.982,0.884,0.913,1.13,0.938,0.957,0.713,0.691,0.738,0.919,0.74,0.594,0.492
PLEGEYFTLQI [TP53_Y327_D324E],6.22,4.24,5.04,18.5,15.5,3.01,3,9.83,4.86,5.5,0.967,2.98,7.65,0.347,0.651,0.493
PLFSKYWPNHI [GREB1L_Y1560_R1558S_YF],2.32,1,0.925,0.823,0.724,0.907,1.33,0.805,0.801,0.933,1.13,1.47,1.38,0.917,0.736,0.459
PLLEFYWDIFT [CDAN1_Y713_R714W_YF],0.971,0.833,0.645,0.428,0.94,0.527,1.2,0.448,0.458,1.17,0.284,0.828,0.412,0.926,0.719,0.527
PMQLPHDSTWE [PDGFRB_Y589_Y589H],2.22,0.829,0.776,0.66,1.23,0.737,1.96,0.582,0.78,1.34,0.531,1.61,0.628,0.679,0.555,0.383
PPAPRYHHLAV [LZTR1_Y119_S122L],0.868,0.606,0.514,0.377,0.745,0.491,0.964,0.444,0.71,1.19,0.556,0.664,0.552,1.45,1.36,1.98
PQGVRYIYTID [DCX_Y103],1.73,0.943,0.951,0.726,1.15,1,5.16,4.01,1.6,2.21,0.856,1.37,4.09,0.772,15.4,0.618
PRAGVYPEKDQ [DNM2_Y626_L621P],1.16,0.734,0.622,0.642,0.759,0.658,1.26,0.658,0.662,1.08,0.511,0.865,0.682,0.635,0.917,0.403

Sequence,phosphorylation enrichment [1],phosphorylation enrichment [2],phosphorylation enrichment [3],phosphorylation enrichment [4],phosphorylation enrichment [5],phosphorylation enrichment [6],phosphorylation enrichment [7],phosphorylation enrichment [8],phosphorylation enrichment [9],phosphorylation enrichment [10],phosphorylation enrichment [11],phosphorylation enrichment [12],phosphorylation enrichment [13],SH2 binding enrichment [14],SH2 binding enrichment [15],SH2 binding enrichment [16]
PRLLRYLQLDF [ASB10_Y457],1.39,0.995,0.73,0.648,0.873,0.662,1.67,0.692,0.65,1.53,0.701,1.04,0.616,1.27,1.6,1.11
PRLMLYNPTTF [EGFR_Y270_P266R_YF],1.16,0.763,0.811,0.772,1.04,0.848,1.18,0.748,0.618,1.38,0.703,1.12,0.729,0.968,0.631,0.505
PSARTYCYKQE [KLHDC9_Y175],1.14,0.647,0.721,0.454,0.907,0.666,1.29,0.533,0.506,0.762,0.736,0.63,0.439,0.768,0.815,0.643
PSQRRYLYYYS [PTEN_Y174_V175L],1.77,0.616,0.697,0.873,0.937,0.92,1.4,1.04,0.737,1.99,4.1,0.659,0.64,0.84,1.48,1.06
PTQLPYDHKWK [KIT_Y578_E583K],0.725,0.484,0.299,0.58,0.439,0.478,0.677,0.433,0.397,0.626,0.28,0.634,0.425,0.756,0.512,0.437
PVDVAYRRGYF [PLEC_Y2967],0.867,0.385,0.577,0.565,0.588,0.601,0.661,0.642,0.587,0.556,0.399,0.743,0.361,0.876,0.519,0.456
PVGDAYKKKGL [NMNAT1_Y55],0.677,0.501,0.924,0.651,0.624,0.609,0.976,0.522,0.559,0.787,0.874,0.574,0.493,0.831,0.673,0.626
QDDFSYPSRQM [LDLR_Y847_G844D_YF],0.791,0.549,0.575,0.425,0.704,0.492,0.826,0.414,0.575,0.674,0.497,0.609,0.403,0.851,0.892,0.54
QDDTVYMGKVT [DCTN1_Y1244],1.96,0.8,0.918,0.789,1.17,2.72,2.4,0.958,1.24,1.31,0.714,1.37,0.917,1.04,0.974,0.649
QDEHGYIFRCF [HSPB1_Y133_S135F],1.75,1.27,0.762,0.912,1.31,0.793,2.15,0.924,0.735,1.6,0.524,1.19,0.661,0.702,0.469,0.566
QDIMAYRGREV [BCL6_Y157],1.1,0.52,0.553,0.565,0.717,0.616,1.04,0.632,0.448,0.937,0.599,0.536,0.531,0.769,0.729,0.447
QFLMKYVWSAS [ABCD1_Y337],1.15,0.582,0.541,0.513,0.759,0.565,1.49,0.3,0.587,1.42,0.528,0.929,0.559,0.677,0.668,0.499
QFRFIYMAVQH [PTPN11_Y515_YF],2.5,1.06,0.704,0.544,1.22,1.3,2.52,0.939,1.42,2.21,0.858,1.73,1.97,0.948,0.635,0.58
QGCGIYKDYYR [PLA2G2D_Y82_S80G],1.69,1.04,0.904,1.1,1.19,0.67,1.59,5.71,3.57,1.21,0.773,1.18,6.8,0.956,0.931,0.497
QGIYGYHHYMQ [UFSP2_Y287],1.6,3.8,8.11,1.32,1.52,13.8,1.31,10.6,8.27,1.36,10.4,5.12,8.3,1.03,1.67,2.15
QHVPDYRQNGY [PCDHGA1_Y890_V894G],0.788,0.484,0.548,0.52,0.578,0.496,0.887,0.523,0.524,0.719,0.493,0.621,0.514,0.889,0.678,0.486
